Measurements as given in patent US20240309113A1 (SUZHOU TRANSCENTA THERAPEUTICS, published 2024).
Changes are numbered by the printed parent chain.

B1: 125D5G1G2 (hybridoma antibody 125D5, mouse) (antibody, V domains shown)
VH: QVQLQQSGPDLVKPGTSVKISCTASGYTFTDYYINWVKQRPGQGLEWIGWIFPGSGSPYYNENFKGRAMFTVDYSSSSAYMLLSSLTSEDSAVYFCTRGDRSGPFAYWGQGTLVTVSA
VL: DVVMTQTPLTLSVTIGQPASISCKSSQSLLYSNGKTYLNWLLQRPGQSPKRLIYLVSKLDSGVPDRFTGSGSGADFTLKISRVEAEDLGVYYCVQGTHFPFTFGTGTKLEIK
notes: Mouse monoclonal antibody purified from hybridoma supernatant; The label 125D5G1G2 is read as a subclone of 125D5; also called 125D5 mouse/chimeric
B2: 160D10 (hybridoma antibody, mouse) (antibody, V domains shown)
VH: QVQLQQSGPELVKPGASVKISCKASGYTFTDYYINWVKQRPGQGLEWVGWIFPGSDSAYYNEKFKGKATLTVDTSSSTAYMLLSSLTSEDSAVYFCARGDRSGPFPYWGQGTLVTVSA
VL: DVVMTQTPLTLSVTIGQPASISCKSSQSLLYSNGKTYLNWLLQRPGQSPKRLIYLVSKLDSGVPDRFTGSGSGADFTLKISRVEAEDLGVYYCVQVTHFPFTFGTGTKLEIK
notes: Mouse monoclonal antibody purified from hybridoma supernatant; also called 160D10 mouse/chimeric
B3: 129C10H2C1 (hybridoma antibody 129C10, mouse) (antibody, V domains shown)
VH: QVQLQQSGPELEKPGTSVKISCEASGYTFTDYYINWVQQRPGQGLEWIGWIFPGSESAYHSEKFKAKATLTVDTSSTTAYMLLTSLTSEDSAVYFCTRGDRSGPFAYWGQGTLVTVSA
VL: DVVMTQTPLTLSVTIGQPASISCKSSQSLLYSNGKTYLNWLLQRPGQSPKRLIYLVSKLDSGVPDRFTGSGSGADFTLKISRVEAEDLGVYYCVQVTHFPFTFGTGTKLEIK
notes: Mouse monoclonal antibody purified from hybridoma supernatant; The label 129C10H2C1 is read as a subclone of 129C10; also called 129C10 mouse/chimeric
B4: 125D5chiIgG4 (chimeric 125D5, human IgG4 kappa) (antibody, V domains shown)
VH: B1 VH
VL: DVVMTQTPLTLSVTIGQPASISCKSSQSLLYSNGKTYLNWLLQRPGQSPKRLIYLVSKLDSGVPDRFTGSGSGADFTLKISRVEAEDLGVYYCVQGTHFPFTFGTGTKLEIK
notes: also called 125D5chilgG4; 125D5 mouse/chimeric
B5: 129C10 HdLb (antibody, human IgG4, V domains shown)
VH: QVQLVQSGAEVKKPGASVKVSCKASGYTFTDYYINWVRQAPGQGLEWMGWIFPGSESAYHSQKFQGRATLTVDTSISTAYMELSRLRSDDTAVYYCTRGDRSGPFAYWGQGTLVTVSS
VL: DVVMTQSPLSLPVTLGQPASISCKSSQSLLYSNGKTYLNWLQQRPGQSPRRLIYLVSKLDSGVPDRFSGSGSGADFTLKISRVEAEDVGVYYCVQVTHFPFTFGQGTKLEIK
notes: Humanized
B6: 129C10 HcLa (antibody, human IgG4, V domains shown)
VH: B5 VH with A68V, L70M
VL: B5 VL with A74T
notes: Humanized
B7: 129C10 HcLb (antibody, human IgG4, V domains shown)
VH: B5 VH with A68V, L70M
VL: B5 VL
notes: Humanized
B8: 129C10 HbLb (antibody, human IgG4, V domains shown)
VH: B5 VH with Q62E, Q65K, G66A
VL: B5 VL
notes: Humanized
B9: 129C10 HdLa (antibody, human IgG4, V domains shown)
VH: B5 VH
VL: B5 VL with A74T
notes: Humanized
B10: 129C10 HaLb (antibody, human IgG4, V domains shown)
VH: B5 VH with Q62E, Q65K, G66A, A68V, L70M
VL: B5 VL
notes: Humanized
B11: 129C10 HbLa (antibody, human IgG4, V domains shown)
VH: B5 VH with Q62E, Q65K, G66A
VL: B5 VL with A74T
notes: Humanized
B12: 160D10chiIgG4 (chimeric 160D10, human IgG4 kappa) (antibody, V domains shown)
VH: B2 VH
VL: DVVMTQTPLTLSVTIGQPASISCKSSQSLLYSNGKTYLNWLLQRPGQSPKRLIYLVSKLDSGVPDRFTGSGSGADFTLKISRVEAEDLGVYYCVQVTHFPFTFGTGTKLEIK
notes: also called 160D10 mouse/chimeric
B13: 129C10chiIgG4 (chimeric 129C10, human IgG4 kappa) (antibody, V domains shown)
VH: B3 VH
VL: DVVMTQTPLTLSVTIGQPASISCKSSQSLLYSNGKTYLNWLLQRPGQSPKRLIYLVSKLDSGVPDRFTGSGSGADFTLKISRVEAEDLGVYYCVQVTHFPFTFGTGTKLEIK
notes: also called 129C10 mouse/chimeric
B14: OMS721 (hIgG4 kappa) (antibody, V domains shown)
VH: QVTLKESGPVLVKPTETLTLTCTVSGFSLSRGKMGVSWIRQPPGKALEWLAHIFSSDEKSYRTSLKSRLTISKDTSKNQVVLTMTNMDPVDTATYYCARIRRGGIDYWGQGTLVTVSS
VL: QPVLTQPPSLSVSPGQTASITCSGEKLGDKYAYWYQQKPGQSPVLVMYQDKQRPSGIPERFSGSNSGNTATLTISGTQAMDEADYYCQAWDSSTAVFGGGTKLTVLR
notes: Benchmark antibody with the variable regions of OMS721 (Narsoplimab) and the constant region of human IgG4; also called OMS721-analog

Target: T1, human MASP-2 protein (recombinant, full-length, C-terminal tag) (human, UniProt O00187 16-686)
T1 construct: The protein was secreted and purified on an anti-FLAG or anti-HIS column; also called hMASP-2; Full-length human MASP-2 protein; not shown: C-terminal HIS-tag or FLAG-tag
T1 sequence (O00187 16-686): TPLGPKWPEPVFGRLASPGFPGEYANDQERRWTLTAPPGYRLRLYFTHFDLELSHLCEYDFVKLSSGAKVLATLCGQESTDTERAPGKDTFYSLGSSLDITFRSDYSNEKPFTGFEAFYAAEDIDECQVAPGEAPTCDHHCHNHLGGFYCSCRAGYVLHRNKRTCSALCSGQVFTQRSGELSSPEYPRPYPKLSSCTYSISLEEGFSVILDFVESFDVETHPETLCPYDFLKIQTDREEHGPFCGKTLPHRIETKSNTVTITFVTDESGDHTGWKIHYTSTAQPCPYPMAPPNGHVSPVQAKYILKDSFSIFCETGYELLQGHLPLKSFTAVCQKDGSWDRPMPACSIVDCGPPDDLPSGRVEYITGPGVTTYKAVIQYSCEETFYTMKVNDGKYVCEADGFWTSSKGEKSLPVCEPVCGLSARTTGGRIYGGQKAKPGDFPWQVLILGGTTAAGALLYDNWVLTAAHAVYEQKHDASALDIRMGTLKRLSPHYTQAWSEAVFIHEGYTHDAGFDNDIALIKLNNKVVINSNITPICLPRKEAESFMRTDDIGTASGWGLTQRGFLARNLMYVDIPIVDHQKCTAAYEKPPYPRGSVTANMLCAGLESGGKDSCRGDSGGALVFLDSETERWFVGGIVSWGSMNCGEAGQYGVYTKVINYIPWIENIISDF
Experiment: BLI (ForteBio Octet RED96), antibody on Protein A biosensor, human MASP-2 in solution (100, 50, 25 nM)

Row | Kd [nM] | koff [s⁻¹] | kon [M⁻¹ s⁻¹] | Binder
1 | 1.64 | 9.73e-05 | 59400 | B1
2 | 27.8 | 0.001 | 36100 | B2
3 | 0.746 | 4.78e-05 | 64000 | B3

Target: T1, human MASP-2 protein (recombinant, …)
Experiment: as above
Remark: another data set of the same source

Row | Kd [nM] | koff [s⁻¹] | kon [M⁻¹ s⁻¹] | Binder
4 | 19.5 | 0.000499 | 25600 | B4
5 | < 0.001 | < 1e-07 | 36000 | B5
6 | < 0.001 | < 1e-07 | 35200 | B6
7 | 1.36 | 4.56e-05 | 33700 | B7
8 | < 0.001 | < 1e-07 | 32900 | B8
9 | 17.1 | 0.000425 | 24900 | B9
10 | 11.4 | 0.000291 | 25500 | B10
11 | < 0.001 | < 1e-07 | 32900 | B11
12 | 0.984 | 3.34e-05 | 34000 | B12
13 | 8.02 | 0.000206 | 25700 | B13

Target: T2, Rat MASP2 (rat, UniProt Q9JJS8)
T2 construct: purchased protein coated on the ELISA plate at 1 ug/ml
T2 sequence (Q9JJS8 20-685 limits assumed): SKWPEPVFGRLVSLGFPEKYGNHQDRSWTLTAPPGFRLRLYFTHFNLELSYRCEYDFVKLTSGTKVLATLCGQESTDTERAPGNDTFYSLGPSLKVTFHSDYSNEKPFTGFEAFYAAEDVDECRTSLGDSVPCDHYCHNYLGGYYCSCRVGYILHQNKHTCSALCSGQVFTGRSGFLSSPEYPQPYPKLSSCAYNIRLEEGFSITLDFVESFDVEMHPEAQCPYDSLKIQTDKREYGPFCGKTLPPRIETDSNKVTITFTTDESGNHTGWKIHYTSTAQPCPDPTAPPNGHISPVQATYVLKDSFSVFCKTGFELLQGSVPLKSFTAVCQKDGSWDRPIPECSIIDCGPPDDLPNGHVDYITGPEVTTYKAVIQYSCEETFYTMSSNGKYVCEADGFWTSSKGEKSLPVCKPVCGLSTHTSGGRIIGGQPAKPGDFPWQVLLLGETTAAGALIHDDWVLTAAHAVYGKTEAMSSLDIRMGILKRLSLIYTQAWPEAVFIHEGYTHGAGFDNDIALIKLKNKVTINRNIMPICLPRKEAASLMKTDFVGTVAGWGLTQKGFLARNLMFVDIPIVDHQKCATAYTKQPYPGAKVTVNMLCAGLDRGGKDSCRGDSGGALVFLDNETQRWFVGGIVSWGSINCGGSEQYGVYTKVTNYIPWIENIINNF
Experiment: ELISA; plate coated with rat MASP2 (1 ug/ml), serially diluted antibody, mouse anti-human IgG4 Fc HRP, OD450

Row | EC50 [µg/mL] | Binder
14 | 12.3 | B14

Target: T3, Mouse MASP2 (mouse, UniProt Q91WP0)
T3 construct: purchased protein coated on the ELISA plate at 1 ug/ml
T3 sequence (Q91WP0 20-685 limits assumed): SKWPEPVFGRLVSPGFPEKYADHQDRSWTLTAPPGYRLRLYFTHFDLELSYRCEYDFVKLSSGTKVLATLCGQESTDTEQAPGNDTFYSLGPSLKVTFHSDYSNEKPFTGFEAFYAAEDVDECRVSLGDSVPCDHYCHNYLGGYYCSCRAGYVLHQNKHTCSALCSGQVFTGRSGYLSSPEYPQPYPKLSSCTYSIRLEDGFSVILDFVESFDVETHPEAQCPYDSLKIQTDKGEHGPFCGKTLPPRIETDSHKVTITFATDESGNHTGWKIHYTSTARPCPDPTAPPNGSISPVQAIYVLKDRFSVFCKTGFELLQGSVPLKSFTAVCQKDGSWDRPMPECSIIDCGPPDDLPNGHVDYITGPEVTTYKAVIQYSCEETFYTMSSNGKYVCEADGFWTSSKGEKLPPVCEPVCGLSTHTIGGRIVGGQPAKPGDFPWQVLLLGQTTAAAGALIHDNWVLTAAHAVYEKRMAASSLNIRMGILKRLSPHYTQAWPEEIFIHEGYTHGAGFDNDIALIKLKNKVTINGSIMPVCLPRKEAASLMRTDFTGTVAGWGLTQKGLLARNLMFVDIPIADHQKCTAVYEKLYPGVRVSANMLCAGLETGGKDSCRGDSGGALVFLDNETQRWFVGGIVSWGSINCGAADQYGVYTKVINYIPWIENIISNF
Experiment: ELISA; plate coated with mouse MASP2 (1 ug/ml), serially diluted antibody, mouse anti-human IgG4 Fc HRP, OD450

Row | EC50 [µg/mL] | Binder
15 | 4.91 | B14

Target: T4, Cyno MASP2
T4 construct: Recombinant coated protein; distinct from m29 (native MASP-2 in cynomolgus serum); also called cynomolgus MASP-2 (recombinant, generated in house)
T4 sequence (MASP-2 polypeptide, as listed by the source limits assumed): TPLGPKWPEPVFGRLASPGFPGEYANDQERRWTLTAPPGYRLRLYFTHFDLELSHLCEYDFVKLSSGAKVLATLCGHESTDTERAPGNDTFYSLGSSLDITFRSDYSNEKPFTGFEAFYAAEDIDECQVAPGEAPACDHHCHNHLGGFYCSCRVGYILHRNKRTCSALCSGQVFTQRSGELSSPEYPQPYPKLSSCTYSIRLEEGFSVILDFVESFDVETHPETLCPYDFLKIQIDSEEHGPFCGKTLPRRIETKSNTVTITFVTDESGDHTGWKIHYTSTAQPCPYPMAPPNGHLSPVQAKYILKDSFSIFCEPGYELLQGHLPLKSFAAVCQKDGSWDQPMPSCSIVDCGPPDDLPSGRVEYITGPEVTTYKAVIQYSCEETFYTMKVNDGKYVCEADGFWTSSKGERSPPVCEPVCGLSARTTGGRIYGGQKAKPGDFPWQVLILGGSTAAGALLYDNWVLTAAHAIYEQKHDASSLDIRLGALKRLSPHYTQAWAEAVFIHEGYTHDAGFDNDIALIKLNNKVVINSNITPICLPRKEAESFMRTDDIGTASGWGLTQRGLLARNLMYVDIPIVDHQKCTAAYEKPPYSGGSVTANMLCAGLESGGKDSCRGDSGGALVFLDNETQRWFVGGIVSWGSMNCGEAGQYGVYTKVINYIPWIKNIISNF
Experiment: ELISA; plate coated with cynomolgus MASP2 (1 ug/ml), serially diluted antibody, mouse anti-human IgG4 Fc HRP, OD450

Row | EC50 [µg/mL] | Binder
16 | 0.0181 | B14
